The target of the test is T1, mature form of human VEGF-C (human, UniProt P49767 103-227).
T1 sequence: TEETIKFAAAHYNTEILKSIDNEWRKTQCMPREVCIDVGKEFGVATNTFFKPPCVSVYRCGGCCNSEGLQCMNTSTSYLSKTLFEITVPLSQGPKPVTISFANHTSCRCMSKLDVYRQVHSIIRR
Briefly: cell-based or functional assay.

VEGFR-2-Ig (Fc fusion): the VEGF-C dependent viability (Ba/F3 VEGFR-3/EpoR, MTT) (fold molar excess) was 10.

B1: VEGFR-3-Ig fusion protein (first three Ig-homology domains of VEGFR-3 and IgG Fc domain) (Fc fusion, not shown: a dimerising Fc or GST)
chain: YSMTPPTLNITEESHVIDTGDSLSISCRGQHPLEWAWPGAQEAPATGDKDSEDTGVVRDCEGTDARPYCKVLLLHEVHANDTGSYVCYYKYIKARIEGTTAASSYVFVRDFEQPFINKPDTLLVNRKDAMWVPCLVSIPGLNVTLRSQSSVLWPDGQEVVWDDRRGMLVSTPLLHDALYLQCETTWGDQDFLSNPFLVHITGNELYDIQLLPRKSLELLVGEKLVLNCTVWAEFNSGVTFDWDYPGKQAERGKWVPERRSQQTHTELSSILTIHNVSQHDLGSYVCKANNGIQRFRESTEVIVHE
As for B1, the “VEGF-C-dependent cell survival (Ba/F3 VEGFR-3/EpoR, MTT)” value is 0.5 molar ratio (VEGFR-3-Ig:VEGF-C).

The values above are taken from US20150141622A1 (published 2015).
